A short description of data set [1]: folding stability dG unfold from trypsin proteolysis; higher = more stable. The procedure, abridged:
(§1)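 K50 was inferred by Bayesian fitting of sequencing counts obtained after protease digestion of designed mini-proteins. Unfolding free energy was derived by comparison with a sequence-predicted unfolded-state K50 and a shared folded-state K50, for each protease or both combined. The mini-proteins were under 80 residues, had no cysteine, were carried in a PA-tagged cDNA display construct, and were kept only if AlphaFold2 dimer inter-PAE exceeded 15.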

The nature of data set [2]: folding stability dG unfold from chymotrypsin proteolysis; higher = more stable. A digest of the protocol: as §1
The nature of data set [3]: folding stability dG unfold (combined trypsin and chymotrypsin); higher = more stable. A digest of the protocol:
as §1

± gives the half width of the 95% confidence interval.

Regarding “SAGGSADYVFVRIEVRDPKNKQPMSIMIPVPPDMTPDEAIEEAEMIANTFKEKGLEITVEVEPMPPSAGGSA [r15_268_TrROS]”, the results for the “folding stability dG unfold” value in data set [1], in data set [2] and in data set [3] were 1.44 ± 0.24 kcal/mol, 1.56 ± 0.13 kcal/mol and 1.45 ± 0.22 kcal/mol, respectively.

Take “SAGGSAEEAEELARRLAAELQAETGLEVTVEVRYDEETDTVVIRMTVRDRATGEERTLELTLRLPDSAGGSA [r15_464_TrROS_Hall]”: the “folding stability dG unfold” value in data set [1] came to 3.04 ± 0.063 kcal/mol; in data set [2], 3.72 ± 0.052 kcal/mol; in data set [3], 3.51 ± 0.059 kcal/mol.

For “SAGGSAEEEVVETEVVYDPETKELHVRTKVFKPKPEITIEVDMSLEEVKALLEELTGRKIDRVEIKSAGGSA [r15_101_TrROS_Hall]”, the entries for the “folding stability dG unfold” value in data set [1], in data set [2] and in data set [3] were 0.433 ± 0.035 kcal/mol, 1.68 ± 0.05 kcal/mol and 1.34 ± 0.084 kcal/mol, respectively.

For “SAGGSAEIAEKNGFKITVELHRYNDYIMVEIEIRWPGGQEFTVTIMIKIKIVPPKPPVDPNDPDNNSAGGSA [r15_843_TrROS]”, the “folding stability dG unfold” value in data set [1] was found to be 4.47 ± 0.61 kcal/mol; in data set [2], 4.47 ± 0.12 kcal/mol; in data set [3], 4.48 ± 0.51 kcal/mol.

As to “SAGGSAEIEGLEFEIVEVTEVRVLPDGTVEITLRVRLPDGSYLRITITVSPDGTVTIDIELLPADESAGGSA [r15_559_TrROS_Hall]”, the “folding stability dG unfold” value in data set [1] was 4.51 ± 0.21 kcal/mol; in data set [2], 4.18 ± 0.1 kcal/mol; in data set [3] it was 4.48 ± 0.18 kcal/mol.

For the sequence “SAGGSAEIEITVTVPPEMTEEEIKEQLEAELQRLTGEKVEIVDIRVEEVNGELTVTVKIKIEPAPPSAGGSA [r15_105_TrROS_Hall]”, the results for the “folding stability dG unfold” value in data set [1], in data set [2] and in data set [3] were 3.04 ± 0.28 kcal/mol, 2.71 ± 0.2 kcal/mol and 2.85 ± 0.3 kcal/mol, respectively.

In the case of “SAGGSAEIELPEGAKVEVTEVEVDGELYLRMKVVDEETGEVFVMEMRMRPDGEMEMEVKKIPKEELSAGGSA [r15_986_TrROS_Hall]”, the “folding stability dG unfold” value worked out at 1.3 ± 0.19 kcal/mol in data set [1], 2.2 ± 0.34 kcal/mol in data set [2] and 1.85 ± 0.27 kcal/mol in data set [3].

In the case of “SAGGSAEIEVTVYYDPETGEILVLINFPDETKFEVAVEEFKKLFEKVEAVKLPDGSVLVRSPLKDASAGGSA [r15_1057_TrMRF]”, the “folding stability dG unfold” value was determined as 1.65 ± 0.12 kcal/mol in data set [1], 1.7 ± 0.071 kcal/mol in data set [2] and 1.59 ± 0.12 kcal/mol in data set [3].

Take “SAGGSAEIWIWMPYDMIESLAKKAGDPNVKVEPVEPPDDNPGEPYWFKITLKDNGKPKREIEFWFPSAGGSA [r15_428_TrROS]”: the “folding stability dG unfold” value in data set [1] was determined as 1.34 ± 0.031 kcal/mol; in data set [2], 2.67 ± 0.045 kcal/mol; in data set [3] it was 2.23 ± 0.15 kcal/mol.

“SAGGSAELAKALGLKVTVEVEEEDGYLTVKVTVTGPNGEEKTFTMVIKIEPLPPPKKVKKGDKKNKSAGGSA [r15_843_TrROS_Hall]”: the “folding stability dG unfold” value amounted to 2.44 ± 0.26 kcal/mol in data set [1], 3.74 ± 0.13 kcal/mol in data set [2] and 3.62 ± 0.21 kcal/mol in data set [3].

As to “SAGGSAEPRPVVVVFEGTEEEVEELVQKVRDEGFAIDFKVEPLPDPRYYRATVIVRDPDGSWTAKLSAGGSA [r15_177_TrMRF]”, the entries for the “folding stability dG unfold” value in data set [1], in data set [2] and in data set [3] were 2.07 ± 0.046 kcal/mol, 2.11 ± 0.041 kcal/mol and 2.12 ± 0.04 kcal/mol, respectively.

Regarding “SAGGSAETAIDLGPPNTTGVLEIEYFDENGNTRRATATFDPNPATISFNEPVEIPPNARIEIKPTSSAGGSA [r15_198_TrMRF]”, the “folding stability dG unfold” value in data set [1] is -0.405 ± 0.21 kcal/mol; in data set [2] it was 0.857 ± 0.064 kcal/mol; in data set [3] it was 0.545 ± 0.14 kcal/mol.

With “SAGGSAETITVMIPPNFLKKLKDQGIKIPPGYPWITITVTYNPDGKIKIKVQIQPMPPVSPEDMKKSAGGSA [r15_322_TrROS]”, the “folding stability dG unfold” value in data set [1] is 1.44 ± 0.091 kcal/mol; in data set [2], 2.72 ± 0.3 kcal/mol; in data set [3], 2.29 ± 0.34 kcal/mol.

As for “SAGGSAETLVITLPPELEGLSEEELLALLKALLPPGAEITEIRVERLPDGSLRVTVTVRVPPPEEPSAGGSA [r15_451_TrROS_Hall]”, the results for the “folding stability dG unfold” value in data set [1], in data set [2] and in data set [3] were 3.33 ± 0.24 kcal/mol, 2.18 ± 0.061 kcal/mol and 2.65 ± 0.15 kcal/mol, respectively.

Take “SAGGSAEVRVVAEPLPDDYLLVLVEFDSPEVLPEALEAIPGVVEVRAYRFLEEGRPRYRVLALVPASAGGSA [r15_344_TrMRF]”: the “folding stability dG unfold” value in data set [1] is 1.4 ± 0.024 kcal/mol; in data set [2], 2.02 ± 0.059 kcal/mol; in data set [3], 1.8 ± 0.06 kcal/mol.

Consider “SAGGSAEVVEREEYFEEKLPNGEKVKVRRIVTEITPIPGLPGYRVEYTVTVEIGDEWETYPLEVAESAGGSA [r15_465_JUSTAS]”, for which the entries for the “folding stability dG unfold” value in data set [1], in data set [2] and in data set [3] were 1.53 ± 0.08 kcal/mol, 1.51 ± 0.026 kcal/mol and 1.61 ± 0.064 kcal/mol, respectively.

On to “SAGGSAEVYKVKIKIERVLPNGEKVEEEITIEVEGMSEEELLALARELAAEPGVRIKEIEIEKLPPSAGGSA [r15_550_TrROS_Hall]”, for which the “folding stability dG unfold” value in data set [1] came to 4.82 ± 0.24 kcal/mol; in data set [2] it was 4.54 ± 0.19 kcal/mol; in data set [3] it was 4.65 ± 0.38 kcal/mol.

As to “SAGGSAFEEVKKKYPNAKWEKIGDEGDTAVYRLTFPGGEKILITVPTLPETDEPVVEVTYVPKGEESAGGSA [r15_547_JUSTAS]”, the “folding stability dG unfold” value in data set [1] stood at 2.71 ± 0.093 kcal/mol; in data set [2], 2.842 ± 0.017 kcal/mol; in data set [3], 2.82 ± 0.059 kcal/mol.

These data come from the supplement of paper PMC12764529.
